Consider 21 sequences from the supplement of paper PMC9233669.

In data set [1] the test system is biotinyl-Phe-oxazolone. The data set can be described thus: self-aminoacylation, catalytic enhancement (BFO) (fold over background); higher = more active; k-Seq, kA / k0A0; sequences stand for … in GGGAAUGGAUCCACAUCUACGAAUUC…UUCACUGCAGACUUGACGAAGCUG
The gist of the method: (§1)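 Each biotinyl-aminoacyl-oxazolone, at 2–1250 μM, was incubated with mutagenized RNA pools (0.43 μM) carrying a 21-nt variable region. The 50 μL reactions contained HEPES/NaCl/KCl/MgCl2/CaCl2 buffer with 5% acetonitrile at pH 6.9–7.0 and ran for 90 minutes at room temperature. After streptavidin capture, RNA was measured by qPCR in triplicate and by Illumina sequencing, and catalytic enhancement was calculated as median kA over the uncatalyzed rate from a pseudo-first-order fit of per-sequence fraction reacted.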

Data set [2] relates to biotinyl-Ile-oxazolone. The data set can be described thus: self-aminoacylation, catalytic enhancement (BIO) (fold over background); higher = more active; k-Seq, kA / k0A0; sequences stand for … in GGGAAUGGAUCCACAUCUACGAAUUC…UUCACUGCAGACUUGACGAAGCUG
The gist of the method:
as §1

Data set [3] relates to biotinyl-Met-oxazolone. The data set can be described thus: self-aminoacylation, catalytic enhancement (BMO) (fold over background); higher = more active; k-Seq, kA / k0A0; sequences stand for … in GGGAAUGGAUCCACAUCUACGAAUUC…UUCACUGCAGACUUGACGAAGCUG
The procedure, abridged: as §1

Data set [4] relates to biotinyl-Val-oxazolone. The data set is described as follows: self-aminoacylation, catalytic enhancement (BVO) (fold over background); higher = more active; k-Seq, kA / k0A0; sequences stand for … in GGGAAUGGAUCCACAUCUACGAAUUC…UUCACUGCAGACUUGACGAAGCUG
The procedure, abridged:
as §1

Data set [5] has as its system biotinyl-Leu-oxazolone. The data set is described as follows: self-aminoacylation, catalytic enhancement (BLO) (fold over background); higher = more active; k-Seq, kA / k0A0; sequences stand for … in GGGAAUGGAUCCACAUCUACGAAUUC…UUCACUGCAGACUUGACGAAGCUG
The procedure, abridged: as §1

Data set [6] deals with biotinyl-Trp-oxazolone. The data set can be described thus: self-aminoacylation, catalytic enhancement (BWO) (fold over background); higher = more active; k-Seq, kA / k0A0; sequences stand for … in GGGAAUGGAUCCACAUCUACGAAUUC…UUCACUGCAGACUUGACGAAGCUG
The gist of the method:
as §1

This sample holds only a part of the variants without activity.

On to “AUUGUCCUGGUCAUCGAGUGA [Fam2.1 aminoacylation ribozyme variant]”, for which the self-aminoacylation was determined as 10 in data set [1]; 4.78 in data set [2]; 9.63 in data set [3]; 4.76 in data set [4]; 8.83 in data set [5]; 11.3 in data set [6].

In the case of “AUUCAGCUAGGUCAUCGAGUG [Fam2.2 aminoacylation ribozyme variant]”, the self-aminoacylation in data set [1] was 8.78; in data set [2] it was 2.01; in data set [3], 2.24; in data set [4] it was 1.95; in data set [5] it was 2.86; in data set [6], 1.98.

Take “CCAGACUUCAACCAAUCGGUC [Fam1B.1 aminoacylation ribozyme variant]”: the self-aminoacylation in data set [1] turned out to be 51.2; in data set [2] it was 1.39; in data set [3], 1.63; in data set [4] it was 1.72; in data set [5], 2.1; in data set [6], 31.4.

“AAGUCUGCGAAUAGUCGCAAG [Fam3.1 aminoacylation ribozyme variant]”: the self-aminoacylation in data set [1] came to 8.07; in data set [2], 1; in data set [3], 1.76; in data set [4], 0.979; in data set [5], 1.38; in data set [6], 1.2.

Consider “AUCCACCUAGGUCAGCGGGUG [Fam2.2 aminoacylation ribozyme variant]”, for which the self-aminoacylation in data set [1] came to 31.2; in data set [2], 3.68; in data set [3], 3.79; in data set [4], 4.02; in data set [5] it was 5.2; in data set [6], 4.43.

With “AUUACCGAGGUCAUCGAGUGA [Fam2.1 aminoacylation ribozyme variant]”, the self-aminoacylation in data set [1] was found to be 38.1; in data set [2] it was 3.99; in data set [3] it was 6.93; in data set [4], 4.64; in data set [5], 8.4; in data set [6], 10.8.

“AUUCACCGAGGUCAUCGGGGG [Fam2.2 aminoacylation ribozyme variant]”: the self-aminoacylation is 7.01 in data set [1]; 2.59 in data set [2]; 2.95 in data set [3]; 2.71 in data set [4]; 2.65 in data set [5]; 3.16 in data set [6].

On to “AAUCACCUAGGCCAUCGGGUG [Fam2.2 aminoacylation ribozyme variant]”, for which the self-aminoacylation in data set [1] was 25.5; in data set [2] it was 2.88; in data set [3] it was 3; in data set [4] it was 3.86; in data set [5] it was 3.01; in data set [6], 5.04.

Regarding “GUACACCUAGGUCAUCGGGUG [Fam2.2 aminoacylation ribozyme variant]”, the self-aminoacylation in data set [1] was determined as 18.5; in data set [2], 2.54; in data set [3], 2.32; in data set [4] it was 2.53; in data set [5] it was 2.69; in data set [6], 4.08.

Consider “AUGACUCUGGUCAUCGAGUGA [Fam2.1 aminoacylation ribozyme variant]”, for which the self-aminoacylation in data set [1] was 23.2; in data set [2], 2.62; in data set [3], 4.86; in data set [4], 2.75; in data set [5] it was 5.16; in data set [6] it was 5.56.

Take “AGACACUUCAAGCAAUCGGUC [Fam1B.1 aminoacylation ribozyme variant]”: the self-aminoacylation stood at 19 in data set [1]; 2.8 in data set [2]; 2.62 in data set [3]; 2.64 in data set [4]; 3.25 in data set [5]; 16 in data set [6].

For “CUACUUCAUAAAAUCGGUCUG [Fam1A.1 aminoacylation ribozyme variant]”, the self-aminoacylation in data set [1] was found to be 0.567; in data set [2] it was 0.656; in data set [3], 0.699; in data set [4], 0.641; in data set [5], 0.622; in data set [6], 0.389.

Consider “CCAGAUUUCAAGCAAUCGGUC [Fam1B.1 aminoacylation ribozyme variant]”, for which the self-aminoacylation in data set [1] turned out to be 3.36; in data set [2] it was 1.5; in data set [3] it was 1.48; in data set [4], 1.4; in data set [5] it was 1.38; in data set [6] it was 2.91.

On to “CCGCACUUCAAGCACUCGGUC [Fam1B.1 aminoacylation ribozyme variant]”, for which the self-aminoacylation in data set [1] amounted to 1.93; in data set [2] it was 1.38; in data set [3], 1.44; in data set [4], 1.79; in data set [5] it was 1.64; in data set [6], 1.55.

For the sequence “AUUCACCUUGGUCCUCGGGUG [Fam2.2 aminoacylation ribozyme variant]”, the self-aminoacylation in data set [1] turned out to be 39.2; in data set [2], 3.53; in data set [3] it was 5.93; in data set [4] it was 3.67; in data set [5], 8.12; in data set [6], 5.17.

As for “AAGUUUGCUAAUAGACGCACG [Fam3.1 aminoacylation ribozyme variant]”, the self-aminoacylation in data set [1] came to 0.811; in data set [2], 0.543; in data set [3], 0.472; in data set [4] it was 0.528; in data set [5], 0.365; in data set [6], 0.572.

Regarding “AUUACGCUGGUGAUCGAGUGA [Fam2.1 aminoacylation ribozyme variant]”, the self-aminoacylation amounted to 25.3 in data set [1]; 2.89 in data set [2]; 4.44 in data set [3]; 2.59 in data set [4]; 5.37 in data set [5]; 5.45 in data set [6].

As to “AAGUUUGCUAAUAGGCGCACG [Fam3.1 aminoacylation ribozyme variant]”, the self-aminoacylation in data set [1] is 2.42; in data set [2], 0.981; in data set [3], 0.568; in data set [4] it was 0.833; in data set [5] it was 0.865; in data set [6], 0.485.

In the case of “AAUACCGUGGUCAUCGAGUGA [Fam2.1 aminoacylation ribozyme variant]”, the self-aminoacylation was 26.4 in data set [1]; 2.89 in data set [2]; 5.12 in data set [3]; 2.81 in data set [4]; 4.83 in data set [5]; 5.14 in data set [6].

“CAGCACUUCAAGCAAUCGGUC [Fam1B.1 aminoacylation ribozyme variant]”: the self-aminoacylation in data set [1] was 34.4; in data set [2], 1.67; in data set [3], 1.79; in data set [4], 1.55; in data set [5], 2.33; in data set [6], 22.1.

As to “AAGUUUGCUGAUAGUCGCAAU [Fam3.1 aminoacylation ribozyme variant]”, the self-aminoacylation in data set [1] was determined as 1.68; in data set [2] it was 1.71; in data set [3], 1.22; in data set [4], 1.33; in data set [5], 1.09; in data set [6], 1.87.
